We go through three molecules from patent US20030113322A1 (published 2003).

In this assay the target is T1, biotinylated recombinant human soluble CD4 (rhCD4, Repligen) (human, UniProt P01730 26-396, limits assumed, biotinylated (sites not given)).
T1 construct: Soluble form, bought; biotinylated with a commercial reagent; also called biotinylated-rhCD4
Nature of the assay: Spot: cellulose-bound dodecapeptide, 20 nM biotinylated rhCD4. Here is the method: The saturated membrane was incubated with a 20 nM solution of biotinylated-rhCD4 for 2 h at 37° C. Bound biotinylated-rhCD4 was detected by incubating the membrane for 1 h at 37° with a 1:3000 solution of alkaline phosphatase-conjugated streptavidin (Sigma, St. Louis, Mo., USA) and subsequent addition of 5-bromo-4-chloro-3-indolyl phosphate substrate. […] In all cases, the reactivity of the spots was evaluated by scanning the membrane and measuring the intensities of the spots with the NIH image 1.61 software.
The anti-CD4 immunoreactivity of these peptides was assessed by incubating the membrane with biotinylated-rhCD4.

No end group written: not given here.

B1: cellulose-bound dodecapeptide 30 of the 13B8.2 VH sequence (linear form of CB2) (peptide)
peptide: TTFGVHWVRQSP
modifications: also: bound to cellulose membrane (Spot synthesis)
notes: also called VH peptide 30
Consider B1, for which the binding result was “binds”.

B2: cellulose-bound dodecapeptide 29 of the 13B8.2 VL sequence (linear form of CB8) (peptide)
peptide: IYSYLAWYQQKQ
modifications: also: bound to cellulose membrane (Spot synthesis)
notes: also called VL peptide 29
Turning to B2, the binding result was “binds”.

B3: cellulose-bound dodecapeptide 29 of the 13B8.2 VH sequence (linear form of CB1) (peptide)
peptide: LTTFGVHWVRQS
modifications: also: bound to cellulose membrane (Spot synthesis)
notes: also called VH peptide 29
Regarding B3, the binding result is “binds”.
